Measurements taken from the supplement of paper PMC12042874.
± gives the uncertainty stated by the source.

Experiment: amyloid nucleation score (Sup35N fusion, yeast selection) (log enrichment); library NNK1; higher = more nucleation; inactive = no reads after selection
Procedure, shortened: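 Libraries of peptides of 20 random codons fused to Sup35N were expressed in psi-negative yeast and induced 24 hours with 100 μM copper sulfate. Selection was 7 days at 30°C on medium lacking adenine and uracil, and plasmid inserts were Illumina-sequenced before and after selection. Nucleation score is the DiMSum log enrichment of output over input reads, centred on the mode score of non-aggregating sequences, and sequences with under 100 input reads were left out.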

| Substance | amyloid nucleation score |
| --- | --- |
| FDLRLRWRVA | 0.295 ± 0.27 |
| FDMCSGISGD | 0.839 ± 0.36 |
| FDNTGDCTNFYQLSDWSP | 1.05 ± 0.22 |
| FDSQDSISFGDGTFKSVWPM | 0.177 ± 0.31 |
| FDVIGSCVGDQWTAGMDWTL | 0.429 ± 0.51 |
| FDVYFSVPFFTLLYNDPKWF | 2.35 ± 0.12 |
| FDWGGTAYKKA | 1.01 ± 0.97 |
| FECCAVLLYMGRVNACRVCC | -0.281 ± 0.44 |
| FEDEPGVSFWNSGGFK | -1.07 ± 0.62 |
| FEDGTCALR | -0.059 ± 0.62 |
| FEKTIHFV | 0.43 ± 0.36 |
| FELGLNCCFLGLVVYAQVNA | inactive |
| FFAGSQIFIHRSLEWI | 1.68 ± 0.17 |
| FFCERVLPVRVVC | 1.06 ± 0.76 |
| FFFALFFQRSTTRGWLSGQL | 0.91 ± 0.62 |
| FFGCCSRGARIDHVSRNHLL | 0.185 ± 0.52 |
| FFGHAEDFLYMIRVHAGNNL | -0.379 ± 0.41 |
| FFGLFQLETWA | 0.02 ± 0.37 |
| FFGMLDPSTER | -0.73 ± 0.36 |
| FFINQRDLLS | -0.084 ± 0.46 |
| FFLMISKLAKWKGVARKTAL | -0.937 ± 2.1 |
| FFLMQYILYYKKQSDMFVSL | -0.912 ± 1.7 |
| FFLVRMCKSRDVTVTVGGSH | 1.53 ± 0.14 |
| FFRIACL | -0.704 ± 0.45 |
| FFRIARCHLEDRWVMIAGVL | 0.118 ± 0.68 |

| Substance | amyloid nucleation score |
| --- | --- |
| FFRRS | 0.924 ± 0.26 |
| FFSMSSVTNKFSTSCRLNHS | 3.18 ± 0.099 |
| FFSPSNKNYKR | -0.215 ± 0.35 |
| FFSYRDSISVKR | -0.449 ± 0.75 |
| FFVVVRAHIDPR | 0.188 ± 0.5 |
| FFYNLFDILFFSFFRILSII | inactive |
| FGANHCKRSNGK | 0.233 ± 0.22 |
| FGDSFLSYGHMLIFFWYMTM | 1.21 ± 0.64 |
| FGHYALRANILLTPITKGMS | 0.892 ± 0.56 |
| FGIPAHNLLCYGCFLNWILV | inactive |
| FGLEK | 1.25 ± 0.64 |
| FGLYYLSNSEFMYVDRFHLG | -0.575 ± 0.38 |
| FGNRELFLYFVCVKRDILVG | -1.23 ± 0.64 |
| FGQCSSLVLT | inactive |
| FGRGHGLTGR | 0.25 ± 0.63 |
| FGRVRCLESEICSCGFFVDE | 3.03 ± 0.15 |
| FHDLGSKCYSMRGTADCFSR | 0.347 ± 0.72 |
| FHPKFWCNRFS | -0.442 ± 0.72 |
| FHTRVKEWVGPAFLGSANLG | 0.25 ± 0.5 |
| FIEHTYVEEG | 0.19 ± 0.23 |
| FIHALLSNYVSIIFSNDRIC | 2.31 ± 0.59 |
| FIIISACSWLLSNWKTSGST | 6.974 ± 0.056 |
| FIIPDRVRFLKGMTSFVNSS | -0.349 ± 1 |
| FILPLCMGVLLSAIETLGTC | 1.09 ± 0.81 |
| FIPQFYSVAMKLGCVRFVVL | 0.577 ± 0.56 |

| Substance | amyloid nucleation score |
| --- | --- |
| FIRFLNTVGSWSLWMPYMVF | 0.851 ± 0.42 |
| FIRLLGSMV | 0.622 ± 0.84 |
| FIRVMRA | inactive |
| FISVMTLRLEKFEVVGDMKL | -0.43 ± 0.39 |
| FIVERDTHQGMHFGLMLING | 0.286 ± 0.62 |
| FIYMQSVCAWFISWNSFR | 0.355 ± 0.86 |
| FIYVDSGDKNGYCACDKFLP | 6.059 ± 0.052 |
| FKDLNIWDWKNGAHITNCLG | 1.05 ± 0.63 |
| FKEFTAIDKSRSVLLNLEPD | inactive |
| FKKSNLPSIVWRCDAWLGSS | 0.334 ± 0.3 |
| FKLGFGVYIVVGKEGFVVSR | 2.02 ± 0.23 |
| FKRFLSLVCV | 0.1 ± 0.53 |
| FKSVFVRTIHATYIVSWAN | -0.413 ± 1.5 |
| FKYYQAGSYNRKRMTQDGGS | 0.175 ± 0.46 |
| FLCMPL | 0.266 ± 0.41 |
| FLICVTSNWLGTYCRVERFW | 0.023 ± 0.35 |
| FLKDIYVYVTLVCHLRSLAS | -0.589 ± 0.49 |
| FLKGYHCVNDDSGNFFIVYI | 2.02 ± 0.11 |
| FLLGSYILWECNHGSHHMSG | 0.06 ± 0.23 |
| FLLREQQGLTEVMKEV | 0.481 ± 0.52 |
| FLNMQYRGLQ | 3.42 ± 0.11 |
| FLSGYGSCLELANVIRWLEN | 1.19 ± 0.69 |
| FLSRGSVWVVGSTFECHYEW | 0.205 ± 0.56 |
| FLVLND | 0.273 ± 0.2 |
| FLWDNAVSKVKFITFVWPHI | 0.86 ± 0.32 |

| Substance | amyloid nucleation score |
| --- | --- |
| FLYVNLL | 0.091 ± 0.19 |
| FMTFVYTGTSFSR | 0.523 ± 0.71 |
| FNAVATKSVNRGRSLLDVTQ | 0.62 ± 0.8 |
| FNDLYLGAYSRREDTNYVRL | 0.198 ± 0.56 |
| FNFMVNRLMVKVGLVSWRQY | 0.029 ± 1.6 |
| FNLNNGIR | inactive |
| FNSYKGLIVQKYPSMTLN | 0.302 ± 1 |
| FNTALSDPYVTMWHYYTNYC | -0.8 ± 0.63 |
| FNYNLCMFMHSVELFLIKIE | 8.162 ± 0.075 |
| FPASNAQNLRLFQVGYGRPQ | 0.185 ± 1.1 |
| FPEWNSWYQRRVMAKGAHGY | 0.58 ± 1.1 |
| FPNLHLTELCLGRIYVRACY | inactive |
| FPNVDNNV | inactive |
| FPQLGLG | inactive |
| FPSLNNVNPSGFCSISSFRG | inactive |
| FPYRGLLFTRLIPAAVGKGA | 0.171 ± 0.74 |
| FQGRLVFVDCDIRLVALKGS | 3.88 ± 0.067 |
| FQGVGDIGSVLHAMFLCYGS | 2.94 ± 0.15 |
| FQKYGQCSHYRVVDRKLQCS | 0.314 ± 1.4 |
| FQLGAHKLRAWLDRGYPEFA | -0.202 ± 0.64 |
| FQRGKLTASLSMVHSSRVCF | -1.6 ± 2.4 |
| FQSARR | 0.575 ± 0.36 |
| FQVLYNGVMCHYSCWCVWKV | 1.05 ± 0.19 |
| FRCLTVYCWF | 7.894 ± 0.044 |
| FRDFMMTFMFPRDMSSGAVG | 0.067 ± 0.4 |

| Substance | amyloid nucleation score |
| --- | --- |
| FRFAMRYFRGIYELRNENRR | inactive |
| FRGRDSCGHH | 0.101 ± 0.44 |
| FRGWV | 1.62 ± 0.12 |
| FRGYHSSMSGNGDDNEKFGG | 0.24 ± 0.71 |
| FRHGKVWSLLKLGADAGREE | 0.098 ± 0.91 |
| FRHVQSMRACFLKSKYGATI | 0.195 ± 0.84 |
| FRICYCWFGGEKDHRNFQIG | 3.86 ± 0.06 |
| FRKFSCCVGSLVSSSYVLDS | 6.16 ± 0.064 |
| FRKKCGVNEIYLWGDSG | inactive |
| FRLARGVVWCPGGISC | -0.536 ± 0.42 |
| FRLMVPGVCRRLANGLRMIW | -0.3 ± 0.35 |
| FRSLSSGIFGACWWYMFYSM | 0.229 ± 0.6 |
| FRSNGQNLVTAISSMDVRAN | -2.14 ± 2.7 |
| FRVFIYPMWRSMWCFGYKEG | inactive |
| FRVWSAFPYVGKSSPFGHSS | -0.89 ± 0.53 |
| FRWPSLLGNLLKLGVDTAD | -0.126 ± 0.38 |
| FSAKYMQGTQWSRLVHMLRT | 0.112 ± 0.48 |
| FSARTTVENAEDRSFDNQLV | 0.312 ± 0.4 |
| FSCSVDLKSSHMEVARNGYP | inactive |
| FSFYLYGGSC | -1.47 ± 2.4 |
| FSGHFNARGFSDSWYVCMIG | -0.855 ± 1.6 |
| FSGLDYNVYVNLVPYFLCIN | 6.34 ± 0.077 |
| FSGVMLVEWLTSPRHLRRAL | 0.678 ± 1.1 |
| FSILILRHCVDLRYRVTSTM | 0.446 ± 0.6 |
| FSITLTPHRGSVMNIYTANV | 1.59 ± 0.17 |

| Substance | amyloid nucleation score |
| --- | --- |
| FSMVLSSTMDLRRELLWNSV | -0.299 ± 0.73 |
| FSREYL | -0.251 ± 0.3 |
| FSSCVNDFLGGRPPSKVLSF | 0.068 ± 0.48 |
| FSVARFGWFLVSALLQGWDR | -0.142 ± 0.55 |
| FSVMKCWPSPRPVNRFLIYA | -0.706 ± 0.46 |
| FSYNVVLRFSLRISSNYFAS | -1.12 ± 0.86 |
| FTAKSL | -0.324 ± 0.38 |
| FTFFRRW | inactive |
| FTFSTGLLFYMFLYGWVH | -0.62 ± 0.34 |
| FTFYYCIRY | 0.673 ± 0.47 |
| FTMYKCMCSMGRRNSAGGAS | -0.325 ± 0.98 |
| FTNKFCFL | 0.069 ± 0.35 |
| FTRQLWYMSICRYFQLPTFY | 1.95 ± 0.56 |
| FTVGYGSYGLT | 0.306 ± 0.54 |
| FTYRGYSDQLMVSLLSLLSE | 1.68 ± 0.48 |
| FTYSLFCAYI | 1.18 ± 0.66 |
| FVCSVFKSYCKSRVFFARAT | -0.025 ± 0.28 |
| FVGFDCYNSVSCCFTMRVSE | 4.02 ± 0.065 |
| FVGIQHRMSYWLCGRHAIVI | 0.965 ± 0.71 |
| FVGQRKLLLKEEAQGFLQCK | -0.707 ± 1.2 |
| FVGTKQWMARGLVNDVKPVH | -0.161 ± 0.45 |
| FVKVLDFYLMLSCHTICLFG | -0.832 ± 1.5 |
| FVLCFFLACGITRNGMPCMV | 1.26 ± 0.76 |
| FVLLNLPLVKRVCRIVGYWG | -0.327 ± 0.51 |
| FVLSIFYIWGKSPSRTYWMN | -0.322 ± 0.74 |

| Substance | amyloid nucleation score |
| --- | --- |
| FVNIADDRRVYLILSVHGDL | 6.575 ± 0.05 |
| FVPIF | -0.208 ± 0.72 |
| FVPLTVN | -0.068 ± 0.28 |
| FVRSFYSDKLWQIFGWVVGS | -0.753 ± 0.51 |
| FVRVLTFPYPMNVFIRLSLA | inactive |
| FVTNTWRVTVCPSQLFGILR | inactive |
| FVWIWYCPIYHCEVLARSPR | -0.614 ± 0.83 |
| FVYDFNGKKFLGLSCALYII | 0.22 ± 1.2 |
| FVYFTGIMIC | -0.46 ± 1 |
| FWHPLG | -0.342 ± 0.28 |
| FWLIHGMIQMGYVK | -0.458 ± 1.2 |
| FWLNLPAWISFAMFVCIVYV | -0.132 ± 0.47 |
| FWNFRVIC | 0.259 ± 1.4 |
| FWPFHDDLDVVSAFCYIRIL | -0.707 ± 0.82 |
| FWPNRLR | 0.169 ± 0.56 |
| FWRKENGYWLGFMPLVREGT | 0.247 ± 0.35 |
| FWRNEVMLSCVGTAMARRVF | 0.398 ± 0.37 |
| FWSLRMLMLADSSDKCVDYC | inactive |
| FWSYSMP | inactive |
| FWVRSGCVSMYGPRRVALEV | -0.003 ± 0.43 |
| FYFLKDY | -0.763 ± 0.3 |
